# B1: S100B (ligand)
# chain: MSELEKAMVALIDVFHQYSGREGDKHKLKKSELKELINNELSHFLEEIKEQEVVDKVMETLDNDGDGECDFQEFMAFVAMVTTACHEFFEHE
# Molecular target: T1, sRAGE^CHO(N25T/N81T) (human, UniProt Q15109 26-340)
# T1 construct: also called sRAGE (N25T/N81T); N25T/N81T mutant
# Test: BIAcore SPR, sRAGE amine-coupled to CM5 chip, S100B as analyte, steady state model
# T1 sequence (Q15109 other isoform, or with tags, fused parts or gaps N25T N81T N25T N81T): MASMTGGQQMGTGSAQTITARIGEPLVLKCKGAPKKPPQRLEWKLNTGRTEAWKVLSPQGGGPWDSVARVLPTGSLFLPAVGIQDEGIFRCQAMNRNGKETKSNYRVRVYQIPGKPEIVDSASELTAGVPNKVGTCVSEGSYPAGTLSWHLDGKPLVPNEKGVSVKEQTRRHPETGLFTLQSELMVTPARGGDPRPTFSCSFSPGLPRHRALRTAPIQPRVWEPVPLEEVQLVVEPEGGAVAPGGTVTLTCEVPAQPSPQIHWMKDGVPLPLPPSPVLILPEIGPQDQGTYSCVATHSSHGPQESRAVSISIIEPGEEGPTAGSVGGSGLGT
binder,measurement,value
B1,Kd,13.6 nM

# Reference: patent publication US20150051136A1 (US Dept. of Health and Human Services, published 2015)
